Laboratory results published in publication PMC7160132.

Tested on: XPO5-His6 (Exportin-5) (Homo sapiens)
Test: EMSA
Conditions: no RanGTP, 20 mM HEPES pH 7.3, 150 mM K acetate, 2 mM Mg acetate, 0.05% NP-40, 7 mM 2-mercaptoethanol, 1.5 ug/mL poly dIdC, 0.2% BSA, 25 C 45 min, then 0.3 ug heparin …

Substance pri-mir-15b has a Kd (single shifted complex) of 9.57 nM.
With pri-mir-19a the Kd (two complexes with increasing XPO5) was 14.6 nM.
vtRNA1-1 showed a Kd (1 nM RNA, super-shift at high XPO5) of 36.3 nM.
